Sequences and labels used below:
B1: ZNF277 (parent)
chain: ILREELQKQRLREILEQQQQERND
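Also: lentivirally expressed fusions sorted by FACS into six bins by GFP to DsRed ratio, PSI derived from sequencing read proportions per bin multiplied by bin number.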

The variants in the series derive from B1. In words: protein stability index of a GFP-peptide fusion (GPS, HEK-293T) (PSI 1-6); higher = more stable. As to conditions: c terminus: a fixed tail appended.
With ILREVLQKQRLREILEQQQQERND [E5V], the protein stability index is 2.42. To ILREMLQKQRLREILEQQQQERND [E5M] belongs 3.05; to ILREILQKQRLREILEQQQQERND [E5I], 2.94. To ILREDLQKQRLREILEQQQQERND [E5D] belongs 4.76; to ILREYLQKQRLREILEQQQQERND [E5Y], 3.55. With ILREGLQKQRLREILEQQQQERND [E5G] the figure was 5.27; with ILRESLQKQRLREILEQQQQERND [E5S], 3.99; with ILRERLQKQRLREILEQQQQERND [E5R], 3.68. As for ILREQLQKQRLREILEQQQQERND [E5Q], the protein stability index came to 4.17. To ILREFLQKQRLREILEQQQQERND [E5F] belongs 2.35. Turning to ILRENLQKQRLREILEQQQQERND [E5N], the protein stability index turned out to be 4.7. To ILRECLQKQRLREILEQQQQERND [E5C] belongs 3.76; to ILREKLQKQRLREILEQQQQERND [E5K], 4.51; to ILREWLQKQRLREILEQQQQERND [E5W], 2.84.

With ILREHLQKQRLREILEQQQQERND [E5H], the protein stability index turned out to be 3.81. On to ILREALQKQRLREILEQQQQERND [E5A], for which the protein stability index was 2.71. To ILREPLQKQRLREILEQQQQERND [E5P] belongs 4.47; to YLREELQKQRLREILEQQQQERND [I1Y], 4.75. With WLREELQKQRLREILEQQQQERND [I1W] the figure was 4.19; with TLREELQKQRLREILEQQQQERND [I1T], 5.08. Consider VLREELQKQRLREILEQQQQERND [I1V], for which the protein stability index came to 4.4. To ILRIELQKQRLREILEQQQQERND [E4I] belongs 3.79. Turning to ILRGELQKQRLREILEQQQQERND [E4G], the protein stability index was found to be 4.89. To ILRPELQKQRLREILEQQQQERND [E4P] belongs 4.95. As for ILRAELQKQRLREILEQQQQERND [E4A], the protein stability index is 3.85. To ILRMELQKQRLREILEQQQQERND [E4M] belongs 3.75; to ILRSELQKQRLREILEQQQQERND [E4S], 4.18. Consider ILRDELQKQRLREILEQQQQERND [E4D], for which the protein stability index amounted to 4.06.

For the variant ILRLELQKQRLREILEQQQQERND [E4L], the protein stability index was determined as 3.05. In the case of ILRYELQKQRLREILEQQQQERND [E4Y], the protein stability index amounted to 3.38.

Take ILRTELQKQRLREILEQQQQERND [E4T]: the protein stability index stood at 4.42. To ILRFELQKQRLREILEQQQQERND [E4F] belongs 2.99; to ILRKELQKQRLREILEQQQQERND [E4K], 3.22. To ILRQELQKQRLREILEQQQQERND [E4Q] belongs 3.99. With ILRRELQKQRLREILEQQQQERND [E4R] the figure was 3.61; with ILRHELQKQRLREILEQQQQERND [E4H], 3.95. As for ILRVELQKQRLREILEQQQQERND [E4V], the protein stability index worked out at 3.88.

For ILRWELQKQRLREILEQQQQERND [E4W], the protein stability index amounted to 3.28. To ILRNELQKQRLREILEQQQQERND [E4N] belongs 4.16; to IFREELQKQRLREILEQQQQERND [L2F], 4.55.

As to IQREELQKQRLREILEQQQQERND [L2Q], the protein stability index turned out to be 5.61. With IMREELQKQRLREILEQQQQERND [L2M] the figure was 4.21; with IPREELQKQRLREILEQQQQERND [L2P], 4.86. Take IAREELQKQRLREILEQQQQERND [L2A]: the protein stability index came to 5.13.

Turning to INREELQKQRLREILEQQQQERND [L2N], the protein stability index turned out to be 5.57.

As to IYREELQKQRLREILEQQQQERND [L2Y], the protein stability index was 4.81. To IKREELQKQRLREILEQQQQERND [L2K] belongs 5.45; to ITREELQKQRLREILEQQQQERND [L2T], 5.04. Take IRREELQKQRLREILEQQQQERND [L2R]: the protein stability index is 5.03. With IGREELQKQRLREILEQQQQERND [L2G] the figure was 5.11; with IHREELQKQRLREILEQQQQERND [L2H], 5.24; with ICREELQKQRLREILEQQQQERND [L2C], 3.94. For the variant IVREELQKQRLREILEQQQQERND [L2V], the protein stability index was found to be 4.73. In the case of IEREELQKQRLREILEQQQQERND [L2E], the protein stability index was 5.51.

For IWREELQKQRLREILEQQQQERND [L2W], the protein stability index came out at 3.79. For IIREELQKQRLREILEQQQQERND [L2I], the protein stability index was determined as 4.41. With IDREELQKQRLREILEQQQQERND [L2D], the protein stability index is 5.63. To ISREELQKQRLREILEQQQQERND [L2S] belongs 5.33; to ILREEVQKQRLREILEQQQQERND [L6V], 4.65; to ILREEMQKQRLREILEQQQQERND [L6M], 3.89.

As for ILREERQKQRLREILEQQQQERND [L6R], the protein stability index turned out to be 4.88. ILREEFQKQRLREILEQQQQERND [L6F]: the protein stability index is 4.49. As to ILREEGQKQRLREILEQQQQERND [L6G], the protein stability index worked out at 4.9. For ILREESQKQRLREILEQQQQERND [L6S], the protein stability index is 4.44. ILREEHQKQRLREILEQQQQERND [L6H]: the protein stability index was found to be 4.59. With ILREEAQKQRLREILEQQQQERND [L6A] the figure was 4.4; with ILREEEQKQRLREILEQQQQERND [L6E], 5.19. For the variant ILREEQQKQRLREILEQQQQERND [L6Q], the protein stability index stood at 3.69. Take ILREECQKQRLREILEQQQQERND [L6C]: the protein stability index is 4.18. With ILREEWQKQRLREILEQQQQERND [L6W] the figure was 5.58; with ILREETQKQRLREILEQQQQERND [L6T], 4.75; with ILREEIQKQRLREILEQQQQERND [L6I], 4.56. To ILREEPQKQRLREILEQQQQERND [L6P] belongs 5.5. With ILREEDQKQRLREILEQQQQERND [L6D] the figure was 4.76. Consider ILREEKQKQRLREILEQQQQERND [L6K], for which the protein stability index turned out to be 4.96. With ILREENQKQRLREILEQQQQERND [L6N] the figure was 4.65; with ILPEELQKQRLREILEQQQQERND [R3P], 5.31; with ILAEELQKQRLREILEQQQQERND [R3A], 4.3.

As to ILQEELQKQRLREILEQQQQERND [R3Q], the protein stability index was found to be 4.69. With ILWEELQKQRLREILEQQQQERND [R3W] the figure was 2.56; with ILNEELQKQRLREILEQQQQERND [R3N], 4.37; with ILHEELQKQRLREILEQQQQERND [R3H], 4.46. With ILGEELQKQRLREILEQQQQERND [R3G] the figure was 5.05; with ILTEELQKQRLREILEQQQQERND [R3T], 4.36. To ILIEELQKQRLREILEQQQQERND [R3I] belongs 2.91; to ILDEELQKQRLREILEQQQQERND [R3D], 5.06. As for ILVEELQKQRLREILEQQQQERND [R3V], the protein stability index was 4.01. To ILYEELQKQRLREILEQQQQERND [R3Y] belongs 3.64; to ILFEELQKQRLREILEQQQQERND [R3F], 3.4. With ILLEELQKQRLREILEQQQQERND [R3L] the figure was 2.82.

For ILKEELQKQRLREILEQQQQERND [R3K], the protein stability index is 4.64. With ILMEELQKQRLREILEQQQQERND [R3M], the protein stability index came out at 3.68.

For ILEEELQKQRLREILEQQQQERND [R3E], the protein stability index was determined as 5.21. To ILSEELQKQRLREILEQQQQERND [R3S] belongs 4.96.
